According to US20220226473A1, “Nucleic acid nanocarrier drug and preparation method thereof, pharmaceutical composition and application thereof” (BAI YAO ZHI DA (BEIJING) NANOBIO TECHNOLOGY CO., LTD., priority 2018, published 2022):
Where a chain is given by its changes, count along the chain named. “And” between values parts separate entries of the source, which are not always exact repeats. Identical values can stand only once. Oligonucleotides are written 5' to 3', each unit as a sugar letter and its base; * is a phosphorothioate linkage, no mark a phosphodiester; rarer units and linkages stand in square brackets, end groups in braces. Plain capitals give the bases only. {Biotin} = biotin attached at the strand's 3'-end (Bio); d = 2'-deoxy (DNA)

B1: D-2: conventional-sequence DNA nanoparticle with EGFRapt target head, strands SEQ ID NO: 102-104 (nucleic acid)
chain 1: dC*dG*dC*dGdCdGdCdCdCdAdGdCdAdGdCdGdTdTdCdGdCdGdGdGdCdGdGdCdGdGdCdCdTdTdAdGdTdAdAdCdGdTdGdCdTdTdTdGdAdTdGdTdCdGdAdTdTdCdGdAdCdAdGdGdA*dG*dG*dC
chain 2: dC*dG*dC*dCdGdCdCdCdGdCdGdTdTdCdGdCdCdGdCdCdAdGdCdC*dG*dC*dC
chain 3: dG*dG*dC*dGdGdCdAdGdGdCdGdGdCdCdAdTdAdGdCdGdCdTdGdGdGdCdGdC*dG*dC*dG
modifications: three-strand DNA nanoparticle with an EGFR aptamer part
B2: R-12: conventional-sequence RNA nanoparticle, strands SEQ ID NO: 88-90, C/U 2′F modified (nucleic acid)
chain 1: CGCGCGCCCAGCAGCGUUCGCCCCGCCGC
chain 2: GCGGCGGGGCGUUCGGCGGCAGGCGGC
chain 3: GCCGCCAGCCGCCCAUAGCGCUGGGCGCGCG
modifications: 2'-fluoro at CU, RNA at AG, backbone not given here; three-strand RNA nanoparticle used as drug carrier
B3: R-14: conventional-sequence RNA nanoparticle carrying survivin siRNA, strands SEQ ID NO: 94-96, C/U 2′F modified (nucleic acid)
chain 1: CGCGCGCGAGCGUUGCAAUGACAGAUAAGGAACCUGCUTT
chain 2: GGCAGGUUCCUUAUCUGUCAAAGCUUCGGCGGCAGC
chain 3: GCAGCCGCCCAUAGCCGCGCGCG
modifications: chain 1: DNA at T, 2'-fluoro at CU, RNA at AG, backbone not given here; chain 2: 2'-fluoro at CU, RNA at AG, backbone not given here; chain 3: 2'-fluoro at CU, RNA at AG, backbone not given here; three-strand RNA nanoparticle carrying a survivin siRNA fragment
B4: R-15: extension fragment deformation+core short-sequence RNA nanoparticle, SEQ ID NO: 120-122, a-strand 3′ biotin, 2′F (nucleic acid)
chain 1: GCGGCGAGCGGCGAGGAGCGUUGGGGCCGGAGGCCGG
chain 2: CCGGCCUCCGGCCCCUUCGGGGCCAGCCGCC
chain 3: GGCGGCAGGCCCCCAUAGCCCUCGCCGCUCGCCGC
modifications: chain 1: 2'-fluoro at CU, RNA at AG, 3' {Biotin}, backbone not given here; chain 2: 2'-fluoro at CU, RNA at AG, backbone not given here; chain 3: 2'-fluoro at CU, RNA at AG, backbone not given here; three-strand RNA nanoparticle
B5: R-16: extension fragment deformation+core short-sequence RNA nanoparticle, SEQ ID NO: 123-125, 3′ biotin, 2′F (nucleic acid)
chain 1: B4 chain 1 with G16C, G23C
chain 2: B4 chain 2 with C15G, G20C, G21C
chain 3: B4 chain 3 with C11G, C12G, C20G
modifications: chain 1: 2'-fluoro at CU, RNA at AG, 3' {Biotin}, backbone not given here; chain 2: 2'-fluoro at CU, RNA at AG, backbone not given here; chain 3: 2'-fluoro at CU, RNA at AG, backbone not given here; three-strand RNA nanoparticle
B6: R-13: conventional-sequence RNA nanoparticle, strands SEQ ID NO: 91-93, C/U 2′F modified (nucleic acid)
chain 1: CGCGCGCCCAGCAGCGUUCGGGGCGCCGC
chain 2: GCGGCGCCCCGUUCGGCCGGCAGGCGGC
chain 3: GCCGCCAGCCGGCCCAUAGCGCUGGGCGCGCG
modifications: 2'-fluoro at CU, RNA at AG, backbone not given here; Strands self-assemble into an RNA nanoparticle carrier
B7: D-6: conventional-sequence DNA nanoparticle without target head, strands SEQ ID NO: 114-116 (nucleic acid)
chain 1: dC*dG*dC*dGdCdGdCdCdCdAdGdCdAdGdCdGdTdTdCdGdGdGdGdCdGdC*dC*dG*dC
chain 2: dG*dC*dG*dGdCdGdCdCdCdCdGdTdTdCdGdGdCdCdGdGdCdAdGdGdC*dG*dG*dC
chain 3: dG*dC*dC*dGdCdCdAdGdCdCdGdGdCdCdCdAdTdAdGdCdGdCdTdGdGdGdCdGdC*dG*dC*dG
modifications: three-strand DNA nanoparticle
B8: D-7: conventional-sequence DNA nanoparticle without target head, strands SEQ ID NO: 117-119 (nucleic acid)
chain 1: dC*dG*dC*dGdCdGdCdCdCdAdCdGdAdGdCdGdTdTdGdCdGdGdGdCdGdC*dC*dG*dC
chain 2: dG*dC*dG*dGdCdGdCdCdCdGdCdTdTdCdGdGdCdGdGdCdAdGdGdC*dG*dG*dC
chain 3: dG*dC*dC*dGdCdCdAdGdCdCdGdCdCdCdAdTdAdGdCdCdGdTdGdGdGdCdGdC*dG*dC*dG
modifications: three-strand DNA nanoparticle
B9: R-8: conventional-sequence RNA nanoparticle with extension fragments, strands SEQ ID NO: 76-78, C/U 2′F modified (nucleic acid)
chain 1: CGCGCGCCCAGGAGCGUUGGCGGGCGGCG
chain 2: CGCCGCCCGCCUUCGCCGCCAGCCGCC
chain 3: GGCGGCAGGCGGCCAUAGCCCUGGGCGCGCG
modifications: 2'-fluoro at CU, RNA at AG, backbone not given here; three-strand RNA nanoparticle used as drug carrier
B10: R-10: conventional-sequence RNA nanoparticle, strands SEQ ID NO: 82-84, C/U 2′F modified (nucleic acid)
chain 1: CGCGCGCCCACGAGCGUUGCGGGGCGGCG
chain 2: CGCCGCCCCGCUUCGCCGCCAGCCGCC
chain 3: B9 chain 3 with C21G
modifications: 2'-fluoro at CU, RNA at AG, backbone not given here; three-strand RNA nanoparticle used as drug carrier
B11: R-11: conventional-sequence RNA nanoparticle, strands SEQ ID NO: 85-87, C/U 2′F modified (nucleic acid)
chain 1: CGCGCGCCCAGGAGCGUUGGCCCGCGGCG
chain 2: CGCCGCGGGCCUUCGGGGCCAGCCGCC
chain 3: B9 chain 3 with G11C, G12C
modifications: 2'-fluoro at CU, RNA at AG, backbone not given here; three-strand RNA nanoparticle used as drug carrier
B12: R-9: conventional-sequence RNA nanoparticle, strands SEQ ID NO: 79-81, C/U 2′F modified (nucleic acid)
chain 1: CGCGCGCCCAGCAGCGUUCGCGGGCGGCG
chain 2: CGCCGCCCGCGUUCGCCGCCAGCCGCC
chain 3: B9 chain 3 with C20G
modifications: 2'-fluoro at CU, RNA at AG, backbone not given here; three-strand RNA nanoparticle used as drug carrier

Assays:
Format in all cases: physicochemical
[1] = Electric potential (zeta potential) measurement of self-assembly products; details: result over 3 detections
Description: Measurement method: preparing a potential sample (the self-assembly product is dissolved in ultrapure water) and putting into a sample pool, opening a sample pool cover of an instrument, and placing the instrument;
opening software, clicking a menu MeasUre€ManUal, so a manual measurement parameter setting dialog box appears;
setting a software detection parameter;
and then clicking Ok to complete the settings, after a measurement dialog box appears, clicking start to start.
and then clicking Ok to complete the settings, after a measurement dialog box appears, clicking Start to start.
Measurement method: preparing a potential sample (the self-assembly product is dissolved in ultrapure water) and putting into a sample pool, opening a sample pool cover of an instrument, and placing the instrument:
Measurement result potential detection results of the 7 groups of the extension fragment deformation+core short-sequence RNA nanoparticles at 25 DEG C. are as follows:
setting a software detection parameter; and then
clicking Ok to complete the settings, after a measurement dialog box appears, clicking Start to start.
Measurement result potential detection results of the 7 groups of the extension fragment deformation+core short-sequence DNA nanoparticles at 25 DEG C. are as follows: […]

[2] = TM value detection by solubility curve method (SYBR Green I); details: RNA nanoparticles; temperature corresponding to ½ RFUmax in 20 to 90 DEG C.
Description: A solubility curve method is used to detect TM values of the 7 groups of the extension fragment deformation+core short-sequence RNA nanoparticles, and the samples are consistent with the potential samples.
(1) After the sample is diluted with ultrapure water, 5 μg of the diluted sample is mixed with 2 μL of SYBR Green I dye (diluted by 1:200), a final volume is 20 μL, and the dilution concentration is as follows:
(2) It is incubated for 30 min in the dark at a room temperature; and
(3) On-machine detection is performed, a program is set to start at 20 DEG C., the temperature rises per second from 0.1 DEG C. to 95 DEG C., and reading is performed every 5 s.
Due to the particularity of the RNA samples, a temperature corresponding to ½ RFUmax in a range of 20 to 90 DEG C. is used as a sample Tm value in this test.
A solubility curve method is used to detect TM values of the 7 groups of the extension fragment deformation+core short-sequence DNA nanoparticles, and the samples are consistent with the potential samples.
(1) After the sample is diluted with ultrapure water, 5 μg of the diluted sample is mixed with 2 μL of SYBR Green I dye (diluted by 1:200). a final volume is 20 μL, and the dilution concentration is as follows: […]

[3] = Particle size measurement (DLS hydrodynamic size); details: for Mean particle size (nm): DLS hydrodynamic size
Source text: 1. Preparing a potential sample (conventional-sequence DNA self-assembly product D-7) and putting into a sample pool, opening a sample pool cover of an instrument, and placing the instrument;
2. opening software, and clicking a menu, so a manual measurement parameter setting dialog box appears;
3. setting a software detection parameter; and then
4. clicking Ok to complete the settings, when a measurement dialog box appears, clicking Start to start, a DLS measurement value result of a hydrodynamic size of the self-assembly product D-7 is shown below in Table 40: […]

[4] = Drug loading rate of nucleic acid nanoparticles (chemical loading, absorbance standard curve); set-up: unit not given here; details: chemical loading method of Embodiment 5
Source text: According to the chemical loading method (unless otherwise specified, the method is the same as that of Embodiment 5) of Embodiment 5, the RNA nanoparticles formed by the self-assembly of the previous R-15, R-16, R-17, R-18, R-19, R-20 and R-21 in Embodiment 9, and the DNA nanoparticles formed by the self-assembly of the D-8, D-9, D-10, D-11, D-12, D-13 and D-14 in Embodiment 10 are respectively used as doxorubicin loading carriers, doxorubicin loading rates measured are respectively as follows:
According to the chemical loading method (unless otherwise specified, the method is the same as that of Embodiment 5) of Embodiment 5, the DNA nanoparticles formed by the self-assembly of the previous D-10 and D-14 in Embodiment 10 are used as a daunorubicin loading carrier.
According to a chemical loading method of Embodiment 5 (unless otherwise specified, the method is the same as that of Embodiment 5, the same molar number of the epirubicin is used as a loading amount), nucleic acid nanoparticles (a molecular weight is 29550, it is similar to the RNA nanoparticles in Embodiment 1, and a difference is that a fluorescent label on a c-strand is Cy5) are used as a carrier, and respectively loaded with: epirubicin, methotrexate, pirarubicin, daunorubicin, […], 10-hydroxycamptothecin, aspirin and gemcitabine.
Herein, when a standard curve is drawn, the absorbance of the above drugs on the microplate reader is measured respectively. The absorbance of the epirubicin, methotrexate, pirarubicin, daunorubicin, […], 10-hydroxycamptothecin, aspirin and gemcitabine is respectively detected at the following wavelengths: 492 nm, 303 nm, 492 nm, 492 nm, 265 nm, 384 nm, 225 nm and 268 nm. The standard curves obtained correspondingly are respectively shown in FIG. 48a, FIG. 49, FIG. 50sa, FIG. 51, FIG. 52, FIG. 53, FIG. 54a and FIG. 55. […]

Row | Molecule | Potential ZP, Experiment result ([1]; sample in ultrapure water) | further results
1 | B1 | −36.47 mV (±0.67 mV) | –
2 | B2 | −10.86 mV (±3.27 mV) | –
3 | B3 | −23.53 mV. ± 2.33 mV | –
4 | B4 | – | TM value (° C.) [2]: 57.5 °C; Mean particle size (nm) [3]: 6.808 nm; Potential ZP, Experiment result ([1]; at 25 DEG C.): −23.23 mV; doxorubicin loading rate [4]: 20.5
5 | B5 | – | TM value (° C.) [2]: 53.8 °C; Mean particle size (nm) [3]: 6.978 nm; Potential ZP, Experiment result ([1]; at 25 DEG C.): −20.93 mV; doxorubicin loading rate [4]: 29.4
6 | B6 | −15.45 mV (±5.81 mV) | –
7 | B7 | −31.90 mV (±0.2 mV) | –
8 | B8 | −32.20 mV (±0.0.5 mV) | Particle size Z-Ave, Experiment result ([3]; result over 3 detections, DLS): 12.33 d.nm (±1.57 d.nm); Particle size Z-Ave ([3]; single detection (detection times 1-3), DLS): 10.76 nm·days and 13.9 nm·days and 10.36 nm·days
9 | B9 | −17.43 mV (±1.33 mV) | –
10 | B10 | −10.87 mV (±0.47 mV) | –
11 | B11 | −29.13 mV (±3.13 mV) | –
12 | B12 | −18.20 mV (±1.3 mV) | –
